Patent US20240150441A1 (ARIZONA BOARD OF REGENTS ON BEHALF OF ARIZONA STATE …, published 2024)

Legend:
[1] = biological target: spike (S) protein of the BA.4/5 SARS-CoV-2 pseudovirus (SARS-CoV-2, Omicron subvariant BA.4/5, UniProt P0DTC2 14-1273); test: cell-based or functional assay
[2] = biological target: spike (S) protein of the authentic parental Omicron variant (B.1.1.529) of SARS-CoV-2 (SARS-CoV-2, B.1.1.529 (Omicron) variant, UniProt P0DTC2 14-1273); test: cell-based or functional assay

B1: plant-made tixagevimab (pTixagevimab) (antibody, V domains shown)
VH: QMQLVQSGPEVKKPGTSVKVSCKASGFTFMSSAVQWVRQARGQRLEWIGWIVIGSGNTNYAQKFQERVTITRDMSTSTAYMELSSLRSEDTAVYYCAAPYCSSISCNDGFDIWGQGTMVTVSS
VL: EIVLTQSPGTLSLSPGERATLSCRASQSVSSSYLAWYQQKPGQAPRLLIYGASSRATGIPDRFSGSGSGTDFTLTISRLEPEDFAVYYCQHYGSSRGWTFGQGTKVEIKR
- neutralization of BA.4/5 pseudovirus, luciferase reporter assay, IC50 [1]: 26.7 µg/mL
- neutralization of authentic B.1.1.529 (Omicron) virus, foci-forming assay, IC50 [2]: 19.7 µg/mL
